Values quoted from earlier work in PMC3462298.

Tests used:
[1] = molecular target: TRTK-12 (UniProt P52907); assay: fluorescence competition
[2] = molecular target: TAMRA-TRTK-12 (CapZ peptide) (Homo sapiens); assay: fluorescence polarization

## S100B (from UniProt P04631)
[1]
  Kd: 2900 nM
[2]
  Kd: 1200 nM
